Article PMC7193532 (Acta Crystallographica. Section D, Structural Biology, 2020)
Several values for one entry are separate records, joined by “and”; a condition that tells them apart may be missing. Identical values can stand only once.

Biological target: the Ala and ValAla insertions and the Met1Ala substitution and Ala insertion
Assay: SPR

rufomycin I (RUF-I) (peptide)
fold reduction in binding affinity against wild type: 13 fold and 16 fold
